Measurements as given in publication PMC9807522 (Cancer Science, 2022).

Legend:
[1] = biological target: VEGFR2 on VEGFR2 overexpressing 293FT cells (Homo sapiens (assumed), UniProt P35968); experiment: cell-based or functional assay
[2] = biological target: recombinant rhesus macaque VEGFR2‐His protein (Macaca mulatta, UniProt F7E313); experiment: ELISA
[3] = biological target: recombinant human VEGFR2 protein (Octet) (Homo sapiens, UniProt P35968); experiment: BLI
Sequence of recombinant human VEGFR2 protein (Octet) (P35968 20-1356): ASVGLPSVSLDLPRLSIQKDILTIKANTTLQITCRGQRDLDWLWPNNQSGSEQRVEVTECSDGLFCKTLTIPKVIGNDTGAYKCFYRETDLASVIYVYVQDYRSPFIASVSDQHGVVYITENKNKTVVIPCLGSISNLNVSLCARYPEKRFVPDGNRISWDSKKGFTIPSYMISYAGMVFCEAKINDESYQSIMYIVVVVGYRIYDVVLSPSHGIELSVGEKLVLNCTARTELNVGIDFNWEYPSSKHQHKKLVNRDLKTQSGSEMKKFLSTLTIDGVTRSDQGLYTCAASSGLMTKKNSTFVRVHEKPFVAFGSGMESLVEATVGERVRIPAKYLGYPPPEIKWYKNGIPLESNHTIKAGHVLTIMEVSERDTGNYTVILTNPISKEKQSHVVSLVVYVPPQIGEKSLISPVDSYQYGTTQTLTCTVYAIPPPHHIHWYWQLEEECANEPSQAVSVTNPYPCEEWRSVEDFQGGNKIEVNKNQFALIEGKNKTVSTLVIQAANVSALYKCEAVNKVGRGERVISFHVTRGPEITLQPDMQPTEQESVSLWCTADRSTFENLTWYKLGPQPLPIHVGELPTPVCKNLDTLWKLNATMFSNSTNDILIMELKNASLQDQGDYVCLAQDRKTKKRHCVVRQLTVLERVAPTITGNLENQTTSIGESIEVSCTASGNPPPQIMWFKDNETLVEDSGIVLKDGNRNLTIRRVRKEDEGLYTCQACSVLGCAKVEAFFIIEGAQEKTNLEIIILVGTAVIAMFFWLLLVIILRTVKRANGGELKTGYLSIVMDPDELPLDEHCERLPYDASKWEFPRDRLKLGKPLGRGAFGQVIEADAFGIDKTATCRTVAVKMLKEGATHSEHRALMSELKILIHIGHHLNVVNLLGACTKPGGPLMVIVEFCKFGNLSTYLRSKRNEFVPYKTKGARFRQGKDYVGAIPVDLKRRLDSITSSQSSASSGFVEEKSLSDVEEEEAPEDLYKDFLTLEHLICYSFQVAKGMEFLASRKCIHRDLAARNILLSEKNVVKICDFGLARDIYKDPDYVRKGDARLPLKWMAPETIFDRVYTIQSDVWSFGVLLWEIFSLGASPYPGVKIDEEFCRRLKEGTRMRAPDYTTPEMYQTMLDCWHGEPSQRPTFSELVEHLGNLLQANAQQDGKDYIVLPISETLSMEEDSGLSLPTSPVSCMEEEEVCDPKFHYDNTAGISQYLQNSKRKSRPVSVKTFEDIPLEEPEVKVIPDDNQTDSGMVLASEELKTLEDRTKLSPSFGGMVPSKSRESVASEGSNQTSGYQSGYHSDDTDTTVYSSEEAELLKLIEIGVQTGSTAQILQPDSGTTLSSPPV

Sequence of VEGFR2 on VEGFR2 overexpressing 293FT cells (P35968 20-1356): as above

EC50 of neutralisation of HUVEC proliferation induced by human VEGF-C [1]: 0.0874 µg/mL
EC50 of neutralisation of HUVEC proliferation induced by human VEGF-C+VEGF-D [1]: 0.086 µg/mL
binding result [2]: binds
Kd [3]: 0.0458 nM
B1: ramucirumab (antibody, V domains shown)
VH: EVQLVQSGGGLVKPGGSLRLSCAASGFTFSSYSMNWVRQAPGKGLEWVSSISSSSSYIYYADSVKGRFTISRDNAKNSLYLQMNSLRAEDTAVYYCARVTDAFDIWGQGTMVTVSS
VL: DIQMTQSPSSVSASIGDRVTITCRASQGIDNWLGWYQQKPGKAPKLLIYDASNLDTGVPSRFSGSGSGTYFTLTISSLQAEDFAVYFCQQAKAFPPTFGGGTKVDIK
